Measurements from PMC9482650, “Quantitative fragmentomics allow affinity mapping of interactomes” (Nature Communications, 2022).

T1: LNX2_3, Q8N448
T1 sequence (Q8N448 463-564, limits assumed, looked up): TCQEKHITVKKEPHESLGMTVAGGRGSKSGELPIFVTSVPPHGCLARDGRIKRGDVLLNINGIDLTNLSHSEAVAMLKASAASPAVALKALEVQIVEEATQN

T2: RAPGEF6, Q8TEU7
T2 sequence (Q8TEU7 525-625, limits assumed, looked up): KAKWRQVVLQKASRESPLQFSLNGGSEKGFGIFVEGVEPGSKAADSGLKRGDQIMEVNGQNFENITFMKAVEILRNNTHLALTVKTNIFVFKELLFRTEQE

T3: APBA2_1, Q99767
T3 sequence (Q99767 563-664, limits assumed, looked up): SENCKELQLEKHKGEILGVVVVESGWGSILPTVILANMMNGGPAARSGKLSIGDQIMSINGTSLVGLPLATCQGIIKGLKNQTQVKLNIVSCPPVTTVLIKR

T4: ARHGEF11, O15085
T4 sequence (O15085 42-136, limits assumed, looked up): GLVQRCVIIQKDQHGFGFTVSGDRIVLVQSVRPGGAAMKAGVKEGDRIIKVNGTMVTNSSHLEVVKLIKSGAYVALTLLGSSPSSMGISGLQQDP

T5: DFNB31_2, Q9P202
T5 sequence (Q9P202 274-371, limits assumed, looked up): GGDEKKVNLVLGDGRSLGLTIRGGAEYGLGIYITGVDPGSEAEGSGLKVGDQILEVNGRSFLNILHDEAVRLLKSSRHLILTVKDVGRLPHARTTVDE

T6: APBA2_2, Q99767
T6 sequence (Q99767 654-744, limits assumed, looked up): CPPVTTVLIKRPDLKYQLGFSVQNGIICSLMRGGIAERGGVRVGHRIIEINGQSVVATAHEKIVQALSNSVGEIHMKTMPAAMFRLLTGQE

T7: SNTB1, Q13884
T7 sequence (Q13884 107-205, limits assumed, looked up): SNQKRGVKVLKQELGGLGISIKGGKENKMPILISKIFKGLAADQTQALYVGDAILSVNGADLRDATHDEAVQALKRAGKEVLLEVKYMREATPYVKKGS

T8: MPDZ_10, O75970
T8 sequence (O75970 1624-1722, limits assumed, looked up): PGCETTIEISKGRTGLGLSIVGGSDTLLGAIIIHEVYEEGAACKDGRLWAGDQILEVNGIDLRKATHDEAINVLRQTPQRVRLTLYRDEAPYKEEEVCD

T9: PDZD2_2, O15018
T9 sequence (O15018 329-429, limits assumed, looked up): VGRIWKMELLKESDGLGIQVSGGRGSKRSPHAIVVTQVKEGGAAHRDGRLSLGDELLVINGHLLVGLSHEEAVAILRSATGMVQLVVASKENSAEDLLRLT

T10: DVL3, Q92997
T10 sequence (Q92997 244-331, limits assumed, looked up): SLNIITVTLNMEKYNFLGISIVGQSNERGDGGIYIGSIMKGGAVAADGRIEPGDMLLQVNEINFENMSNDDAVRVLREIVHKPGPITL

T11: MPP6, Q9NZW5
T11 sequence (Q9NZW5 125-219, limits assumed, looked up): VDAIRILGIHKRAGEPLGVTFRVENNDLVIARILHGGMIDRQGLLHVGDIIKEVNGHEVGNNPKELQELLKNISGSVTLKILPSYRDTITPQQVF


Assays:
Test in all cases: holdup assay
Design in all cases: key: below the threshold = too weak to quantify, mostly under pKd 3.1 to 4
Conditions in all cases: plain residues with an end cap or a label only (N-terminal biotin on a linker: ttds)
[1] = target: T1, LNX2_3, Q8N448
[2] = target: GRIP2_6, Q9C0E4
GRIP2_6, Q9C0E4, sequence (Q9C0E4 648-740): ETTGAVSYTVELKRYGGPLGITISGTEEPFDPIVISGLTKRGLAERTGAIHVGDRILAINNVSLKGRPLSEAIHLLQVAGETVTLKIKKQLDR

[3] = target: T2, RAPGEF6, Q8TEU7
[4] = target: SCRIB_2, Q14160
SCRIB_2, Q14160, sequence (Q14160 857-960): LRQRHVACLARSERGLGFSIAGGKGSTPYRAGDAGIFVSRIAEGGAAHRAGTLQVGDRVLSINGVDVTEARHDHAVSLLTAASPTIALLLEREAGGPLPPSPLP

[5] = target: T3, APBA2_1, Q99767
[6] = target: T4, ARHGEF11, O15085
[7] = target: TJP2_1, Q9UDY2
TJP2_1, Q9UDY2, sequence (Q9UDY2 24-128): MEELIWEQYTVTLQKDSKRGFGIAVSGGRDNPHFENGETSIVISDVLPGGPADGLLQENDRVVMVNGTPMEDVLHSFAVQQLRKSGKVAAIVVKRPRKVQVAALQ

[8] = target: T5, DFNB31_2, Q9P202
[9] = target: IL16_4, Q14005
IL16_4, Q14005, sequence (Q14005 1229-1329): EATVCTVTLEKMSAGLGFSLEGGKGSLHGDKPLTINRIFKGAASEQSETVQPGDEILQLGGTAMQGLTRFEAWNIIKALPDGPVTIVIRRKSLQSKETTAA

[10] = target: GRASP, Q7Z6J2
GRASP, Q7Z6J2, sequence (Q7Z6J2 96-193): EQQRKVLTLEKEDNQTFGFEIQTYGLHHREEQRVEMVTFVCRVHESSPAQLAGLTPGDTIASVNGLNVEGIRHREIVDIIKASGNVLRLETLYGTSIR

[11] = target: T6, APBA2_2, Q99767
[12] = target: T7, SNTB1, Q13884
[13] = target: SNX27, Q96L92
[14] = target: T8, MPDZ_10, O75970
[15] = target: IL16_3, Q14005
IL16_3, Q14005, sequence (Q14005 1107-1207): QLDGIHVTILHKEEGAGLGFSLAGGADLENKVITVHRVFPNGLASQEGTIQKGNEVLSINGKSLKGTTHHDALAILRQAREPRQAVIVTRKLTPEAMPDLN

[16] = target: DLG1_1, Q12959
[17] = target: T9, PDZD2_2, O15018
[18] = target: DLG5_1, Q8TDM6
DLG5_1, Q8TDM6, sequence (Q8TDM6 617-713): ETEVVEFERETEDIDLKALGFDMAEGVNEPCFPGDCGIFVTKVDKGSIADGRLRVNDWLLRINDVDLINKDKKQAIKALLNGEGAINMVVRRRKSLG

[19] = target: T10, DVL3, Q92997
[20] = target: T11, MPP6, Q9NZW5
[21] = target: GRIP2_3, Q9C0E4
GRIP2_3, Q9C0E4, sequence (Q9C0E4 238-339): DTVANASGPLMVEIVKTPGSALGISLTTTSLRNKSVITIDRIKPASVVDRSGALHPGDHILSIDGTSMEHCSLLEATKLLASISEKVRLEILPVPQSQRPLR

[22] = target: SCRIB_3, Q14160
SCRIB_3, Q14160, sequence (Q14160 999-1103): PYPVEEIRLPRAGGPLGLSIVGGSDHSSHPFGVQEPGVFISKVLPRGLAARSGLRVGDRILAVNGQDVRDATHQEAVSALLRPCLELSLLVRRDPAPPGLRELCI

[23] = target: LIMK2, P53671
LIMK2, P53671, sequence (P53671 143-248): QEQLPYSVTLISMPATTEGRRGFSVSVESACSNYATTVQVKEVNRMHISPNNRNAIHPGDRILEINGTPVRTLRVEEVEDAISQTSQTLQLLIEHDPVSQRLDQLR

[24] = target: HTRA1, Q92743
HTRA1, Q92743, sequence (Q92743 360-477): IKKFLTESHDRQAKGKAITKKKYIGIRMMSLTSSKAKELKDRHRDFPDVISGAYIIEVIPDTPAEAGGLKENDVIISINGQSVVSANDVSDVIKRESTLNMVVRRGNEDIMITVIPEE

[25] = target: TJP1_2, Q07157
TJP1_2, Q07157, sequence (Q07157 181-274): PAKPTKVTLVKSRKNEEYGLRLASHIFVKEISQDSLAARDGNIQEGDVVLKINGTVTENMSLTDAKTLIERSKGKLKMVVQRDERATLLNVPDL

[26] = target: NHERF4_1, Q86UT5-2
NHERF4_1, Q86UT5-2, sequence (Q86UT5 other isoform, or with tags, fused parts or gaps): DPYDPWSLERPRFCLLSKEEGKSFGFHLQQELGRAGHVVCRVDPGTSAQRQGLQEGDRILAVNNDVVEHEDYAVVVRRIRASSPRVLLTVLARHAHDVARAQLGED

pKd [1] | pKd [2] | pKd [3] | pKd [4] | pKd [5] | pKd [6] | pKd [7] | pKd [8] | pKd [9] | pKd [10] | pKd [11] | pKd [12] | pKd [13] | pKd [14] | pKd [15] | pKd [16] | pKd [17] | pKd [18] | pKd [19] | pKd [20] | Binder | other results
below the threshold | below the threshold | below the threshold | 4.86 | below the threshold | 4.47 | below the threshold | below the threshold | below the threshold | 3.67 | below the threshold | 5.29 | 6 | below the threshold | below the threshold | 4.73 | 5.1 | below the threshold | below the threshold | below the threshold | IQREDQETAV [DGKZ, Q13574] | pKd [21]: below the threshold; pKd [22]: 5.05; pKd [23]: below the threshold; pKd [24]: 3.96; pKd [25]: below the threshold; pKd [26]: below the threshold
below the threshold | below the threshold | below the threshold | 4.27 | below the threshold | 4.27 | 3.49 | below the threshold | below the threshold | 4.22 | below the threshold | 4.69 | 5.48 | below the threshold | below the threshold | 4.12 | below the threshold | below the threshold | below the threshold | below the threshold | SPLHSLETSL [ATP2B1, P20020] | pKd [21]: below the threshold; pKd [22]: 5.54; pKd [23]: below the threshold; pKd [24]: 3.75; pKd [25]: below the threshold; pKd [26]: 3.91
below the threshold | below the threshold | below the threshold | 5.01 | below the threshold | 4.21 | below the threshold | below the threshold | below the threshold | below the threshold | below the threshold | 4.84 | 4.17 | 3.71 | below the threshold | 5.01 | 4.33 | below the threshold | 3.65 | below the threshold | MERLRVETDV [ARHGEF16, Q5VV41] | pKd [21]: below the threshold; pKd [22]: 5.21; pKd [23]: below the threshold; pKd [24]: below the threshold; pKd [25]: below the threshold; pKd [26]: below the threshold
